Results reported in patent US20070065468A1.

Molecular target: mite allergen specific IgE of atopic subjects
Assay: cell-based or functional assay

B1: CHO-K1-expressed three-in-one chimeric mite allergen D1proenzD1LB5LD2 (protein)
chain: RPSSIKTFEEYKKAFNKSYATFEDEEAARKNFLESVKYVQSNGGAINHLSDLSLDEFKNRFLMSAEAFEHLKTQFDLNAETNACSINGNAPAEIDLRQMRTVTPIRMQGGCGSCWAFSGVAATESAYLAYRNQSLDLAEQELVDCASQHGCHGDTIPRGIEYIQHNGVVQESYYRYVAREQSCRRPNAQRFGISNYCQIYPPNVNKIREALAQTHSAIAVIIGIKDLDAFRHYDGRTIIQRDNGYQPNYHAVNIVGYSNAQGVDYWIVRNSWDTNWGDNGYGYFAANIDLMMIEEYPYVVILGGGSGGGSGGQEHKPKKDDFRNEFDHLLIEQANHAIEKGEHQLLYLQHQLDELNENKSKELQEKIIRELDVVCAMIEGAQGALERELKRTDLNILERFNYEEAQTLSKILLKDLKETEQKVKDIQTQGGGSGGGSGGDQVDVKDCANHEIKKVLVPGCHGSEPCIIHRGKPFQLEAVFEANQNTKTAKIEIKASIDGLEVDVPGIDPNACHYMKCPLVKGQQYDIKYTWNVPKIAPKSENVVVTVKVMGDDGVLACAIATHAKIRD
fold decrease in IgE-mediated histamine release by human basophils: 100 times
histamine release in basophils (whole blood of two atopic individuals): 104 fold
skin prick test, positive skin reactivity in 15 atopic subjects: 26.6%
